{
  "source": "paper PMC2929599",
  "about": "(Biochemistry, 2009)",
  "molecules": {"B1": {"name": "hTHEM2 (human hotdog-fold thioesterase THEM2, thioesterase superfamily member 2) (Homo sapiens) (protein)", "chain": "MTSMTQSLREVIKAMTKARNFERVLGKITLVSAAPGKVICEMKVEEEHTNAIGTLHGGLTATLVDNISTMALLCTERGAPGVSVDMNITYMSPAKLGEDIVITAHVLKQGKTLAFTSVDLTNKATGKLIAQGRHTKHLGN"}},
  "key": {"[1]": {"target": "T1, hTHEM2 (human hotdog-fold thioesterase THEM2, thioesterase superfamily member 2) (Homo sapiens, UniProt Q9NPJ3)", "T1 sequence (Q9NPJ3 1-140)": "B1 chain", "test": "steady-state competitive inhibition, DTNB thioesterase assay", "type": "biochemical"}, "[2]": {"substrate": "CCCCCCCCCCCCCC(=O)SCCNC(=O)CCNC(=O)[C@H](O)C(C)(C)COP(=O)(O)OP(=O)(O)OC[C@H]1O[C@@H](n2cnc3c(N)ncnc32)[C@H](O)[C@@H]1OP(=O)(O)O", "test": "purified protein", "conditions": "pH 7.5; 25.0 °C"}, "[3]": {"substrate": "CC(C)(COP(=O)(O)OP(=O)(O)OC[C@H]1O[C@@H](n2cnc3c(N)ncnc32)[C@H](O)[C@@H]1OP(=O)(O)O)[C@@H](O)C(=O)NCCC(=O)NCCSC(=O)Cc1ccc(O)c(O)c1", "test": "steady-state hydrolysis kinetics", "type": "biochemical, Homo sapiens", "conditions": "pH 7.5; 25.0 °C"}, "[4]": {"substrate": "CC(C)(COP(=O)(O)OP(=O)(O)OC[C@H]1O[C@@H](n2cnc3c(N)ncnc32)[C@H](O)[C@@H]1OP(=O)(O)O)[C@@H](O)C(=O)NCCC(=O)NCCSC(=O)Cc1cccc(O)c1", "test": "steady-state hydrolysis kinetics", "type": "biochemical, Homo sapiens", "conditions": "pH 7.5; 25.0 °C"}, "[5]": {"substrate": "CCCCCC/C=C\\CCCCCCCC(=O)SCCNC(=O)CCNC(=O)[C@H](O)C(C)(C)COP(=O)(O)OP(=O)(O)OC[C@H]1O[C@@H](n2cnc3c(N)ncnc32)[C@H](O)[C@@H]1OP(=O)(O)O", "test": "steady-state hydrolysis kinetics", "type": "biochemical, Homo sapiens", "conditions": "pH 7.5; 25.0 °C"}, "[6]": {"substrate": "CCCCCCCC/C=C\\CCCCCCCC(=O)SCCNC(=O)CCNC(=O)[C@H](O)C(C)(C)COP(=O)(O)OP(=O)(O)OC[C@H]1O[C@@H](n2cnc3c(N)ncnc32)[C@H](O)[C@@H]1OP(=O)(O)O", "test": "steady-state hydrolysis kinetics", "type": "biochemical, Homo sapiens", "conditions": "pH 7.5; 25.0 °C"}, "[7]": {"substrate": "CCCCCCCCCC(=O)SCCNC(=O)CCNC(=O)[C@H](O)C(C)(C)COP(=O)(O)OP(=O)(O)OC[C@H]1O[C@@H](n2cnc3c(N)ncnc32)[C@H](O)[C@@H]1OP(=O)(O)O", "test": "steady-state hydrolysis kinetics", "type": "biochemical, Homo sapiens", "conditions": "pH 7.5; 25.0 °C"}, "[8]": {"substrate": "CCCCCCCCCCCC(=O)SCCNC(=O)CCNC(=O)[C@H](O)C(C)(C)COP(=O)(O)OP(=O)(O)OC[C@H]1O[C@@H](n2cnc3c(N)ncnc32)[C@H](O)[C@@H]1OP(=O)(O)O", "test": "steady-state hydrolysis kinetics", "type": "biochemical, Homo sapiens", "conditions": "pH 7.5; 25.0 °C"}},
  "data": [
    {"molecule": "CCNC(=O)CCNC(=O)[C@H](O)C(C)(C)COP(=O)(O)OP(=O)(O)OC[C@H]1O[C@@H](n2cnc3c(N)ncnc32)[C@H](O)[C@@H]1OP(=O)(O)O", "note": "[desulfoCoA]", "values": [
      {"measurement": "Ki", "setting": "[1]", "result": 9, "unit": "µM"}
    ]},
    {"molecule": "B1", "values": [
      {"measurement": "Km", "setting": "[2]", "result": 5, "unit": "µM"},
      {"measurement": "kcat", "setting": "[2]", "result": 0.02, "unit": "s⁻¹"},
      {"measurement": "kcat/Km", "setting": "[2]", "result": 4000, "unit": "M⁻¹ s⁻¹"},
      {"measurement": "Km", "setting": "[3]", "result": 10, "unit": "µM"},
      {"measurement": "kcat", "setting": "[3]", "result": "0.19 ± 0.01", "unit": "s⁻¹"},
      {"measurement": "kcat/Km", "setting": "[3]", "result": 18000, "unit": "M⁻¹ s⁻¹"},
      {"measurement": "Km", "setting": "[4]", "result": 41, "unit": "µM"},
      {"measurement": "kcat", "setting": "[4]", "result": "1.4 ± 0.1", "unit": "s⁻¹"},
      {"measurement": "kcat/Km", "setting": "[4]", "result": 35000, "unit": "M⁻¹ s⁻¹"},
      {"measurement": "Km", "setting": "[5]", "result": 9, "unit": "µM"},
      {"measurement": "kcat", "setting": "[5]", "result": "0.017 ± 0.001", "unit": "s⁻¹"},
      {"measurement": "kcat/Km", "setting": "[5]", "result": 1900, "unit": "M⁻¹ s⁻¹"},
      {"measurement": "Km", "setting": "[6]", "result": 9, "unit": "µM"},
      {"measurement": "kcat", "setting": "[6]", "result": "0.011 ± 0.001", "unit": "s⁻¹"},
      {"measurement": "kcat/Km", "setting": "[6]", "result": 1300, "unit": "M⁻¹ s⁻¹"},
      {"measurement": "Km", "setting": "[7]", "result": 4.9, "unit": "µM"},
      {"measurement": "kcat", "setting": "[7]", "result": "0.016 ± 0.001", "unit": "s⁻¹"},
      {"measurement": "kcat/Km", "setting": "[7]", "result": 3300, "unit": "M⁻¹ s⁻¹"},
      {"measurement": "Km", "setting": "[8]", "result": 9.9, "unit": "µM"},
      {"measurement": "kcat", "setting": "[8]", "result": "0.019 ± 0.001", "unit": "s⁻¹"},
      {"measurement": "kcat/Km", "setting": "[8]", "result": 1900, "unit": "M⁻¹ s⁻¹"}
    ]}
  ]
}
